B1: CDS2 (parent)
chain: IHSIALSTFASLIGPFGGFFASGF

Variants of: B1
Experiment: protein stability index of a GFP-peptide fusion (GPS, HEK-293T) (PSI 1-6); higher = more stable
Conditions: c terminus: a fixed tail appended
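Also: lentivirally expressed fusions sorted by FACS into six bins by GFP to DsRed ratio, PSI derived from sequencing read proportions per bin multiplied by bin number.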

Row | Variant | protein stability index
1 | IDSIALSTFASLIGPFGGFFASGF [H2D] | 2.57
2 | IHSIALSTFASLFGPFGGFFASGF [I13F] | 3.52
3 | IHSIALSTFASLIGPFGGFFASGM [F24M] | 2.8
4 | IHSIALSTFASLIGPFGGFFASGC [F24C] | 4.83
5 | IHSIALSTFASLIGMFGGFFASGF [P15M] | 3.79
6 | IGSIALSTFASLIGPFGGFFASGF [H2G] | 3.52
7 | IHSIALSTFASLIGTFGGFFASGF [P15T] | 3.98
8 | IHSIWLSTFASLIGPFGGFFASGF [A5W] | 2.77
9 | IKSIALSTFASLIGPFGGFFASGF [H2K] | 3.27
10 | IHSIALSTFASLIGPFGGAFASGF [F19A] | 2.87
11 | IHSIALSTFASLIGPFGGFFASPF [G23P] | 2.73
12 | IHSIALSRFASLIGPFGGFFASGF [T8R] | 3.47
13 | IHSIDLSTFASLIGPFGGFFASGF [A5D] | 2.51
14 | IHSILLSTFASLIGPFGGFFASGF [A5L] | 2.15
15 | QHSIALSTFASLIGPFGGFFASGF [I1Q] | 1.48
16 | IHSIALSTFASLIGPFLGFFASGF [G17L] | 3.48
17 | IHSIALSTFASLIGPFGGFFASFF [G23F] | 2.67
18 | IHSIALSTFASLIQPFGGFFASGF [G14Q] | 2.15
19 | IHSIAFSTFASLIGPFGGFFASGF [L6F] | 2.34
20 | IHSIALSTFASYIGPFGGFFASGF [L12Y] | 2.37
21 | IHSIALSDFASLIGPFGGFFASGF [T8D] | 2.14
22 | IHSIALSTFASLIGPFGGFFASIF [G23I] | 1.59
23 | IHSIARSTFASLIGPFGGFFASGF [L6R] | 1.67
24 | IHSIALSTFASLIGPFGGFFASCF [G23C] | 2.54

Row | Variant | protein stability index
25 | IHSIALSTFASLIGPLGGFFASGF [F16L] | 1.91
26 | IHSIALSHFASLIGPFGGFFASGF [T8H] | 3.82
27 | IHSIALSTFISLIGPFGGFFASGF [A10I] | 4.24
28 | IHSIAWSTFASLIGPFGGFFASGF [L6W] | 2.43
29 | IHSIALFTFASLIGPFGGFFASGF [S7F] | 3.48
30 | IHSIALSTFASLIGPFMGFFASGF [G17M] | 2.12
31 | IHSIRLSTFASLIGPFGGFFASGF [A5R] | 3.68
32 | IHSIALSTFASLIGPFGGFFASGH [F24H] | 3.27
33 | IHSIALSTFASLIGKFGGFFASGF [P15K] | 1.77
34 | IHSIALSTFASLITPFGGFFASGF [G14T] | 2.79
35 | IHSIALSTFASLIVPFGGFFASGF [G14V] | 2.64
36 | IHSIALSTFASLIGQFGGFFASGF [P15Q] | 3.43
37 | IHSIALSTFASLIRPFGGFFASGF [G14R] | 2.97
38 | IHSWALSTFASLIGPFGGFFASGF [I4W] | 2.65
39 | IHSIALSTFASLIGPFGGFFYSGF [A21Y] | 3.42
40 | IHSIALSTFASLIGPFGPFFASGF [G18P] | 2.83
41 | IHSIALSTFADLIGPFGGFFASGF [S11D] | 2.9
42 | IHSIALSTFASNIGPFGGFFASGF [L12N] | 2.95
43 | IHSIALSTFASLIGPFGGFFAQGF [S22Q] | 2.57
44 | IHSPALSTFASLIGPFGGFFASGF [I4P] | 3.8
45 | IHSIALSTFALLIGPFGGFFASGF [S11L] | 2.8
46 | IHSIALSTFASLIGPFGGFFHSGF [A21H] | 4.77
47 | IHSIALSTFASLIGPFIGFFASGF [G17I] | 2.98
48 | IHKIALSTFASLIGPFGGFFASGF [S3K] | 3.55

Row | Variant | protein stability index
49 | IHSIALSTFASLIGPFKGFFASGF [G17K] | 2.22
50 | IHSIALSTFASLIGPFGGCFASGF [F19C] | 2.63
51 | FHSIALSTFASLIGPFGGFFASGF [I1F] | 2.15
52 | IHSIALSTFASLIGPDGGFFASGF [F16D] | 3.08
53 | IHSIALSTFASLIGPFGGFFADGF [S22D] | 2.53
54 | IHSIALSTFASLINPFGGFFASGF [G14N] | 1.69
55 | IHSIALSTFASLIGSFGGFFASGF [P15S] | 2.34
56 | IHSIALSWFASLIGPFGGFFASGF [T8W] | 2.58
57 | IHSIALSTFASLIGPFGGFFASVF [G23V] | 2.14
58 | IHSIALSTFASLWGPFGGFFASGF [I13W] | 3.97
59 | IHSIALSTFFSLIGPFGGFFASGF [A10F] | 3.04
60 | IHSIAMSTFASLIGPFGGFFASGF [L6M] | 4.1
61 | IHSIALSTFASLIGPFGEFFASGF [G18E] | 2.89
62 | IHSIALSTFASLIGPFGGTFASGF [F19T] | 3.17
63 | HHSIALSTFASLIGPFGGFFASGF [I1H] | 2.21
64 | IHSIALSTFASLIGPFGGFFASGW [F24W] | 3.66
65 | IHSLALSTFASLIGPFGGFFASGF [I4L] | 1.57
66 | IHSIALSTFASLIGCFGGFFASGF [P15C] | 2.62
67 | IHSIALSTFCSLIGPFGGFFASGF [A10C] | 2.97
68 | IHSIALSTFASLIGPFGAFFASGF [G18A] | 2.37
69 | IHSIALSTFASLIGPFGGFFAEGF [S22E] | 2.95
70 | IHSIALSTFASLIGPFGGFFWSGF [A21W] | 2.61
71 | IHSIALSTFAWLIGPFGGFFASGF [S11W] | 5.33
72 | IHSIALSTFASLIGPFGGFFTSGF [A21T] | 3.65

Row | Variant | protein stability index
73 | IHSIALSTFAGLIGPFGGFFASGF [S11G] | 2.9
74 | IHSINLSTFASLIGPFGGFFASGF [A5N] | 4.35
75 | IYSIALSTFASLIGPFGGFFASGF [H2Y] | 3.65
76 | IHSISLSTFASLIGPFGGFFASGF [A5S] | 3.12
77 | IHSIALSEFASLIGPFGGFFASGF [T8E] | 2.67
78 | IHSIALSTFASLIGPFTGFFASGF [G17T] | 4.3
79 | IHSIALSTFASLIGFFGGFFASGF [P15F] | 2.46
80 | IHSIALSTFASLIGPFGGFPASGF [F20P] | 3.39
81 | IHSIALSTFATLIGPFGGFFASGF [S11T] | 2.57
82 | CHSIALSTFASLIGPFGGFFASGF [I1C] | 3.03
83 | IHSIALSTFASLIGPFGGFFASGT [F24T] | 3.42
84 | IHSIALSTFASLIGPFGGFFDSGF [A21D] | 4.2
85 | IHSIALSTFASLIGPFGFFFASGF [G18F] | 3.59
86 | IHSIALSTFASLIGNFGGFFASGF [P15N] | 2.82
87 | IHSIALSTFASLIGPFGGFFASSF [G23S] | 1.46
88 | IHTIALSTFASLIGPFGGFFASGF [S3T] | 2.8
89 | IHSIALSTFASLIEPFGGFFASGF [G14E] | 2.76
90 | IMSIALSTFASLIGPFGGFFASGF [H2M] | 2.79
91 | IHSICLSTFASLIGPFGGFFASGF [A5C] | 3.88
92 | IHSIALSTFAKLIGPFGGFFASGF [S11K] | 3.22
93 | IHSIALSTFASLIGPRGGFFASGF [F16R] | 2.29
94 | IHSIALSTFASLIGPFGGFFASKF [G23K] | 2.05

Source: the supplement of paper PMC10567573
